Measurements from patent US20090028788A1 (WASHINGTON UNIVERSITY IN ST LOUIS, published 2009).
[ ]: non-standard residue; d: D form. The star is where a group is joined. Cypate = CC1(C)C(/C=C/C=C/C=C/C=C2/N(CCC(=O)*)c3ccc4ccccc4c3C2(C)C)=[N+](CCC(=O)O)c2ccc3ccccc3c21

B1: Cypate-Lys-Arg-Gly-Asp-DPhe-Asp-DPhe-EAhx-NH2 (peptide)
peptide: KRGDXDXX
HELM: PEPTIDE1{[CC1(C)C(/C=C/C=C/C=C/C=C2/N(CCC(=O)[*:2])c3ccc4ccccc4c3C2(C)C)=[N+](CCC(=O)O)c2ccc3ccccc3c21].K.R.G.D.[dF].D.[dF].[O=C(CCCCCN[*:1])[*:2]].[am]}$$$$V2.0
SMILES: CC1(C)C(/C=C/C=C/C=C/C=C2/N(CCC(=O)N[C@@H](CCCCN)C(=O)N[C@@H](CCCNC(=N)N)C(=O)NCC(=O)N[C@@H](CC(=O)O)C(=O)N[C@H](Cc3ccccc3)C(=O)N[C@@H](CC(=O)O)C(=O)N[C@H](Cc3ccccc3)C(=O)NCCCCCC(N)=O)c3ccc4ccccc4c3C2(C)C)=[N+](CCC(=O)O)c2ccc3ccccc3c21
B2: Cypate-cyclo(CRGDDC)-NH2 (peptide)
peptide: CRGDDC
HELM: PEPTIDE1{[CC1(C)C(/C=C/C=C/C=C/C=C2/N(CCC(=O)[*:2])c3ccc4ccccc4c3C2(C)C)=[N+](CCC(=O)O)c2ccc3ccccc3c21].C.R.G.D.D.C.[am]}$PEPTIDE1,PEPTIDE1,2:R3-7:R3$$$V2.0
SMILES: CC1(C)C(/C=C/C=C/C=C/C=C2/N(CCC(=O)N[C@H]3CSSC[C@@H](C(N)=O)NC(=O)[C@H](CC(=O)O)NC(=O)[C@H](CC(=O)O)NC(=O)CNC(=O)[C@H](CCCNC(=N)N)NC3=O)c3ccc4ccccc4c3C2(C)C)=[N+](CCC(=O)O)c2ccc3ccccc3c21
B3: Cypate-cyclo(CRGDLC)-NH2 (peptide)
peptide: CRGDLC
HELM: PEPTIDE1{[CC1(C)C(/C=C/C=C/C=C/C=C2/N(CCC(=O)[*:2])c3ccc4ccccc4c3C2(C)C)=[N+](CCC(=O)O)c2ccc3ccccc3c21].C.R.G.D.L.C.[am]}$PEPTIDE1,PEPTIDE1,2:R3-7:R3$$$V2.0
SMILES: CC(C)C[C@@H]1NC(=O)[C@H](CC(=O)O)NC(=O)CNC(=O)[C@H](CCCNC(=N)N)NC(=O)[C@@H](NC(=O)CCN2/C(=C/C=C/C=C/C=C/C3=[N+](CCC(=O)O)c4ccc5ccccc5c4C3(C)C)C(C)(C)c3c2ccc2ccccc32)CSSC[C@@H](C(N)=O)NC1=O
B4: Cyclo(Lys(Cypate)-Arg-Gly-Asp-DPhe-Val) (peptide)
peptide: cyclo(K(Cypate)RGD[dF]V)
SMILES: CC(C)[C@@H]1NC(=O)[C@@H](Cc2ccccc2)NC(=O)[C@H](CC(=O)O)NC(=O)CNC(=O)[C@H](CCCNC(=N)N)NC(=O)[C@H](CCCCNC(=O)CCN2/C(=C/C=C/C=C/C=C/C3=[N+](CCC(=O)O)c4ccc5ccccc5c4C3(C)C)C(C)(C)c3c2ccc2ccccc32)NC1=O
notes: also called Cyclo(K^(Cypate)RGDfV); cyclo-[K^(Cypate)RGDfV]
B5: Cypate-cyclo(CRGDGRC)-NH2 (peptide)
peptide: CRGDGRC
HELM: PEPTIDE1{[CC1(C)C(/C=C/C=C/C=C/C=C2/N(CCC(=O)[*:2])c3ccc4ccccc4c3C2(C)C)=[N+](CCC(=O)O)c2ccc3ccccc3c21].C.R.G.D.G.R.C.[am]}$PEPTIDE1,PEPTIDE1,2:R3-8:R3$$$V2.0
SMILES: CC1(C)C(/C=C/C=C/C=C/C=C2/N(CCC(=O)N[C@H]3CSSC[C@@H](C(N)=O)NC(=O)[C@H](CCCNC(=N)N)NC(=O)CNC(=O)[C@H](CC(=O)O)NC(=O)CNC(=O)[C@H](CCCNC(=N)N)NC3=O)c3ccc4ccccc4c3C2(C)C)=[N+](CCC(=O)O)c2ccc3ccccc3c21
B6: Cypate-Gly-Arg-Gly-Asp-Ser-Pro-Lys-OH (peptide)
peptide: GRGDSPK
HELM: PEPTIDE1{[CC1(C)C(/C=C/C=C/C=C/C=C2/N(CCC(=O)[*:2])c3ccc4ccccc4c3C2(C)C)=[N+](CCC(=O)O)c2ccc3ccccc3c21].G.R.G.D.S.P.K}$$$$V2.0
SMILES: CC1(C)C(/C=C/C=C/C=C/C=C2/N(CCC(=O)NCC(=O)N[C@@H](CCCNC(=N)N)C(=O)NCC(=O)N[C@@H](CC(=O)O)C(=O)N[C@@H](CO)C(=O)N3CCC[C@H]3C(=O)N[C@@H](CCCCN)C(=O)O)c3ccc4ccccc4c3C2(C)C)=[N+](CCC(=O)O)c2ccc3ccccc3c21
notes: also called Cypate-GRGDSPK; Cypate-GRGDSPK-OH
B7: Cypate-Gly-Arg-Asp-Ser-Pro-Lys-OH (peptide)
peptide: GRDSPK
HELM: PEPTIDE1{[CC1(C)C(/C=C/C=C/C=C/C=C2/N(CCC(=O)[*:2])c3ccc4ccccc4c3C2(C)C)=[N+](CCC(=O)O)c2ccc3ccccc3c21].G.R.D.S.P.K}$$$$V2.0
SMILES: CC1(C)C(/C=C/C=C/C=C/C=C2/N(CCC(=O)NCC(=O)N[C@@H](CCCNC(=N)N)C(=O)N[C@@H](CC(=O)O)C(=O)N[C@@H](CO)C(=O)N3CCC[C@H]3C(=O)N[C@@H](CCCCN)C(=O)O)c3ccc4ccccc4c3C2(C)C)=[N+](CCC(=O)O)c2ccc3ccccc3c21
notes: also called Cypate-GRDSPK; Cypate-GRDSPK-OH
B8: cyclo[RGDfVK] (peptide)
peptide: RGDXVK
HELM: PEPTIDE1{R.G.D.[dF].V.K}$PEPTIDE1,PEPTIDE1,1:R1-6:R2$$$V2.0
SMILES: CC(C)[C@@H]1NC(=O)[C@@H](Cc2ccccc2)NC(=O)[C@H](CC(=O)O)NC(=O)CNC(=O)[C@H](CCCNC(=N)N)NC(=O)[C@H](CCCCN)NC1=O

target: T1, purified human αvβ3 integrin protein (human, UniProt P06756 31-1048; P05106 27-788); assay: competition with 125I-echistatin on purified human αvβ3 integrin, filter plate
T1 construct: Bought heterodimer; also called ABI; purified αvβ3 integrin

IC50 [µM]	Molecule
4.67	Cypate(Octreotate)1-(Arg-Gly-Asp-NH2)1 (peptide)
0.328	B1

target: T1, purified human αvβ3 integrin protein; assay: as above; remark: another data set of the same source

IC50 [µM]	Molecule
1.89	B2
9.64	B3
79.5	B4
1.09	B5

target: T1, purified human αvβ3 integrin protein; assay: as above; remark: another data set of the same source

IC50 [µM]	Molecule
0.328	B6
7.02	B7
79.5	B4

target: T1, purified human αvβ3 integrin protein; assay: competition with 125I-echistatin on purified αvβ3 integrin, filtration plate (Example 3)

IC50 [µM]	Molecule
10.7	B6
> 100	B7
1.93	B8
79.1	B4
